# Measurements reported in patent US8637739B2, “Anti-nematode peptides and methods of use thereof” (Pioneer Hi Bred International Inc, priority 2011, dated 2014).
# B1: RX025: small, active 25 kDa Sphingobacterium spiritivorum protein; putative twin arginine translocation pathway signal protein (protein, listed as Sphingobacterium spiritivorum)
# chain: MHRREALQRVALLMGGTVIGANLFLEGCSRSASKDTAKLFEKDSVNFLGDLAEAILPKTSTPGAKEAGVGEFIPVMIRDCYADTEQKVFLDGINTVDERAKKEFGKKFQELSKEDQTKFVNILDKEASEYNAKQAEATKAQREKDALKQNEMYRVPKSDPPHWFTMFKQLTLTGFFTSELGATKALRYVKIPGKFDGNYPYKKGEHAWA
# Test system: C. elegans
# Experiment: C. elegans feeding assay
# Assay type: in vivo, Caenorhabditis elegans
# Experimental: The 75G5 strain was obtained from a biodiverse collection of bacterial strains. The strain was grown in Tryptic soy medium overnight at 20° C., with shaking at 225 rpm. 5 to 30 μL of the liquid culture was added into assay wells in 96-well plates. Each assay well contained 120 μL of liquid with ˜50 L1 staged C. elegans, 30 μg/mL tetracycline, 30 μg/mL chloramphenicol, and S-medium. E. coli strain OP50 was used as a negative control. Forty-eight hours later, the assay plates were scored under a microscope by checking the worm's growth and development.
# To further characterize the nematicidal activity, the 75G5 strain was cultured in 50 ml Tryptic soy medium at 20° C. for 18 h, with 225 rpm shaking. The cell pellet was collected after centrifugation at 700 rpm and then stored at −80 C. Total protein was extracted from the cell pellet using the B-PER II Bacterial Protein Extraction Reagent from Thermo. The lysate was centrifuged twice at 10,000 rpm and the final supernatant was collected as the total protein sample.
# The expression constructs were then transformed into E. coli TOP10 strain with carbenicillin selection. For protein expression, an E. coli overnight culture was diluted by 50 fold and grown at 37° C. for 2.5 hours (to OD600 ˜0.5). Protein expression was induced by adding 0.8 mM IPTG and the culture was grown for another 5 hours at 30° C. […]
molecule,measurement,setting,value
B1,nematicidal activity (worm development),"E. coli TOP10 strains expressing the RX025 gene from pMAL (MBP fusion) and pQE80L, IPTG induced","inhibited worm development, arresting worms at the L1 stage"
same,nematicidal activity of purified protein bands,proteins in pooled Mono Q/Mono S fractions of strain 75G5 membrane associated proteins,active
